Among the data in a protein production outcome set (Wang et al. 2014) are protein production values, retold here.

The series can be described thus: label from the status in PepcDB records.
Turning to “GKTFPDVPADHWGIDSINYLVEKGAVKGNDKGMFEPGKELTRAEAATMMAQILNLPIDKDAKPSFADSQGQWYTPFIAAVEKAGVIKGTGNGFEPNGKIDRVSMASLLVEAYKLDTKVNGTPATKFKDLETLNWGKEKANILVELGISVGTGDQWEPKKTVTKAEAAQFIAKTDKQFGTE”, the protein production result is recorded as “not failed”.

With “MFAFPRLRFVLVGTQHPGNIGAAARAMKTMGISRLVLVAPECQLDEHAYRRSAGAEDVLEAASVHTVLADAVADCTFVLGCTARTRRVAFEELRPAAAASQILTNINAAGEVALLFGRERTGLTNEELQLCHVAVHIPADPLFSSLNLAAAVQILAYEIRLASLDAPSAPLHSTSGFRKTPASHAQLEGLFGQFKQTLDEIDFHKGRAPESAMRKLRRLFAKAELTQQEIRLLRGVLSDVQRIVMLKRQRDT”, the protein production entry was “failed”.

On to “MKKLNIALLGLGTVGSGVVKIIEENRQQIQDTLNKDIVIKHILVRDKSKKRPLNISQYHLTEDVNEILNDDSLDIIVEVMGGIEPTVDWLRTALKNKKHVITANKDLLAVHLKLLEDLAEENGVALKFEASVAGGIPIVNAINNGLNANNISKFMGILNGTSNFILSKMTKEQTTFEEALDEAKRLGFAEADPTDDVEGVDAARKVVITSYLSFNQVIKLNDVKRRGISGVTLTDINVADQLGYKIKLIGKGIYENGKVNASVEPTLIDKKHQLAAVEDEYNAIYVIGDAVGDTMFYGKGAGSLATGSAVVSDLLNVALFFESDLHTLPPHFELKTDKTREMMDSDAEINIKEKSNFFVVVNHVKGSIENFENELKAILPFHRSLRVANYDNQSYAAVIVGLESSPEELITKHGYEVDKVYPVEGV”, for which the protein production result was “failed”.

On to “MAIPHYRLASFSSIIDDEIDKSVLVNLVGAIYDVGEFINTRPKQNIVDDLTLTFKISDNENRVLECLATKKEALDFDHNYRQYGGGVIVAVLGWWKIERYFDGTKNIRVCTACPISTVFP”, for which the protein production entry is on record as “failed”.

For “MAYITYQQYLDLYGTCPISEEEFPVYAGLASDMIDSITRYRIVEGGGISALPSILQTLVQKAAAAQVLYFTQIGLETVLTGQAGQSFTVGKVSVSGGALSSTTTKPGALMVSPFALSLLEQTPLMERGVHVCSDRFLNPFWGILEHHHHHH”, the protein production entry is on record as “failed”.

With “MASLSYPKTTMQIQLGANLKPYHTFGIEQLAAQLVVAESIDDLKALYCSAEWASLPKLIIGKGSNMLFTCHYTGMIVVNRLNGIEHQQDDDYHRLHVAGGEDWPSLVSWCVEQGIGGLENLALIPGCAGSAPIQNIGAYGVEFKDVCDYVEYLCLETGTVKRLTMEECQFGYRDSIFKHQLYQKAVVTAVGLKFAKAWQPIIQYGPLKDLSSDCAIHDVYQRVCATRMEKLPDPAVMGNAGSFFKNPVISQQAFARLQIEHPDVVAYPAEQGVKVAAGWLIDQAGLKGHQIGGAKVHPKQALVIVNTGDASAQDVLMLAADIQQRVFNCYGIELEHEVRFIGESEETNLKQWMSEQA”, the protein production entry is “not failed”.

Take “MNLEHHSNHYQPTCSIEALQARAKLYQTIRTFFAERGVLEVETPIISQAGVTDVHLASVKALRHIEGKERTQYLQTSPEFAMKRLLASGSGPIYQLCKVFRDDEHGRKHNSEFTMLEWYRPEFDLKDLMHETADLLETCLKQRFDEIRPMILSYKHAFQDRLEINPLQATLKQLKDTADRVGLNLDLGNDRLAYIDLLFSHIVEPSLGFDTPVFLTDFPPEMASLAKVRIDEDGEEVAARFEVYIEGLELANAYDELLDANILRARFEADNLERKLQGLAEMPLDENLLAALPHMPACAGIALGVDRLLMIATRQLKIEQVIAFPAAIA”: the protein production entry is listed as “failed”.

In the case of “MTIACPQCGATAEARTDTRFHGCAFCGSSFMVERGVGIAEYHLDHERDDRVAWSAVASTLERDGAGQAVERTGCEYLVAPFWLSRPESGGNRLVPALRHPWLQGPLPGLPGGDLLFVPSGDDFILPDIPADEALGEGADRGGTSLSLVYLPLYLLSFRLAGHDCRALVSAVDRRVALLTPLPARSESVPFRHAALVAGFAITLTASGLAVKSHFLRAAVFAAVLAVAWPVCTALLRRGE”, the protein production result was “failed”.

For the sequence “MVMPESHIHNIPMEQCVLVALMTFALSYELIAQDLDEGCFYPERHKQIYNAIVELANENQPYDVVMVEQRLKSKNLLHVLGGEQYLKIMLAEAPSSFHSMEPYITQLKKLKAHRQVEWLGQRISSMAQDTTQPDVFAEAENILGQVDNQEQSDQGMSFEAALDMALTEMIEKAEAKDKQQFTGVKFNLKHLDELLGTVQKGHFCVVGGRPGSGKSTLAQMLALDTASSFGKGVLFISAEMDQSTLANRMISALGLIPYHNIHNAELYNGLMKDYADAKAAYQRLPIWIQPKQKPSLSEVRSYARRAKRRYKELGCIIVDYLQLLRDPSKKDRFQEVSSISRELKSMAKEFECPVIALVQLNREAEKGKRPKASDIKESGQIEQDADQIILVNPLTDPEDSTKPMGITELIVVKNRHGKRGAVRVLDYLETCRFRSVEEQAEP”, the protein production result is “failed”.

In the case of “MTGQVLDGRYRLVERLGSGGMGEVWRGHDERLGRTVAIKLIHPGASVDDEAVALFRREAQVTARLAGHPNIVILYDYGTDGDTVYTVMELVTGCSLSALLRERGRLPVELAVRWGAHVCAGLAAAHAVGVVHRDIKPSNLMVVDADAPDGGTVKLVDFGIAGFHEAALHQRTLPPTGEPFGTPLYVSPEQIQMLPVGAFSDLYSFGAVLFHMLTGQPPFHAAEPMPVLRMHLTEPPPNPAELRPDVPAELAELVLMLLAKDPGQRPDNALWVRDRLLSLSGTSPPASAASPTESASREAQMRRLEQSWVEAERLAAAGQAAAAAQRIGALLGELAAIYGADHPATLEARRRHASLTSRAGDPERAAALFDTLVADLDRIYGHAHPETYAARHHLAAATEQAGRRAEAAVLRSELVDALTAQYGPQAARLLHPRLFYAVDLAEAGDFTGAEKLLRDLAAALEQQLGAHTPALQIVHHYLDAAAAFASETAGAEPPHPNRFRESTRLDGRPPPHPLRQRLTRWLRSTTEL”, the protein production entry is reported as “failed”.

For “MALARANSPQEALLWALNDLEENSFKTLKFHLRDVTQFHLARGELESLSQVDLASKLISMYGAQEAVRVVSRSLLAMNLMELVDYLNQVCLNDYREIYREHV”, the protein production entry was “not failed”.

As to “MDFVIRRATAEEYDTLGEITAQAYLRDGLLDFGESDSYLDELRDVAKRAAAAEVLVAVADDAVLGGATFVPSGGPMADIARPGEAEIRMLAVAREARGRGAGEALVRACADRARAVPGCTGVVLSTQAAMRTAHRLYERLGFVRTPDRDWNPLPELDDIMLLTYELTL”, the protein production result is recorded as “failed”.

For the sequence “MSLRIDPLGGESLKNQEVKGKKSGKTSRVGESKKKEFFDILEDVKEDHFEKLLEEAVEEVIDSGNELVRSPTPSNLKRYKNAIKEFLKLIEKKIYKLAGSFDMNSGRARLHLVVEEVNEKLMDLTEKIMKNEWQTINLAARIEEINGLILNLYREGHHHHHH”, the protein production entry is listed as “not failed”.

For “MTSPVQATPEPQPGLVARLSAEALGSMFVVVAAVGVGIFSNPGAAPLPAALATGLTVTAAMLAFGYVSGGHFNPAITLGNLIAGRIRAVAAVAYVAAQIIGSVVGAALMYFVVTTVPVLTDARAAFDVVAPGFGDHASAQTQMAGVLLVEVLGSALLVAVFLGATAGRRALPAMAPFAVGLAMAVLLQLGQVLGNLPFNPARATAQAFFSSPWAIEGLWLFWVAPLMGAALAGLAFRGFQGLSQAAVADTDHFHGGTDGINDAFDADDEPAEDSEVKEEAAAKADIAPSRAVPTVPVTDDARDFFDGKKGK”, the protein production result was “failed”.

As to “MKSVGQALENQGRVPRNTNDELIQMILADAQVAEFIKTHQLSQREINISMSKFNQFLIERQKFKNKDSQYIAKGYEPILVMNEGYADVSYLETRELIEAQKKQAISDRINLVNLPKSYRNIRMTDFDINNESRMKAMSQLLDFVETYPSYNHKGLYLYGDMGVGKSYLMAAMARELSERKGVSTTLLHFPSFAIDVKNAISSGTVKDEIDAVKSVPILILDDIGAEQATSWVRDEILQVILQHRMLEELPTFFTSNYSFNDLERKWANIKGSDETWQAKRVMERVRYLAIEFHLEGPNRR”, the protein production result is reported as “failed”.

Regarding “MPSCAVEGNPSVHTPHPPRPLYPPRPAMPPGESDESLGGQLRGRPEGAAPHPVALLMARHWESTYDYAVICLASSANVASIVTAGAFQQVVGRLMRSGSAAAVRPALLVAVRDTVREWSAEERISGVLPELRKPAGGRGMRAAKSLTPENRVLAERSFLTLPGLSRCLLWHTEVEAESISVPAGLSGIGTDTATAALEQAREQFREGCVRAHRELAPTKECRLYNRLLDVPIRRGGALLPDVQRHLLGCRFCRNAAEQLSHFEGALGGLLAEAVLGWGARRYLESRPGRTPYGGRARGVSGSGGRPGSGGRHRLLAQIPAPGRRTPVGERGARAVLTGVGIASAAVLATFLVTGLWSNDDGNVDPTASTSASGGRTTVLPTPGSQIPPTVSSPPDSAGLPTTPRQTRLRNLAADLCLDVRGEAKAGAGTKLAVCSSAWTQQWTYEKDGLLRSVADPELCLDSGAVDGVAELGRCVAESSAHGGDVRYDLTVQGEVLSRRKGSLAVTPGNTDPDADIVVKVRDGSDKQRWLTDSPSDQPESLSIAGTTPPSATPATDAPAATPAPTPVPASPGTRLTDAPVASSAPPSENYGERRSLTVTDTSTPEPVLPLTVHLPDLLGEIGVGL”, the protein production result is recorded as “failed”.

Take “MTMDGDSSTTDASQLGISADYIGGSHYVIQPHDDTEDSMNDHEDTNGSKESFREQDIYLPIANVARIMKNAIPQTGKIAKDAKECVQECVSEFISFITSEASERCHQEKRKTINGEDILFAMSTLGFDSYVEPLKLYLQKFREAMKGEKGIGGAVSATDGLSEELTEEAFTNQLPAGLITADGQQQNVMVYTTSYQQISGVQQIQFS”: the protein production result was “failed”.

As to “MRITRIMKTAKTARTTTSTRTSGARQAAAPLIKFSLFALVTMVATTLLAATIVNISLTPEHTYRAVFSDVTGLEKGDDIRVAGVRVGQVEGIRIKDRTLAEVTFTVGEDRPLLNSTGAVVRYRNLVGQRYVALTEGAGDATRLKPGATIPLSRTQPALDLNALLNGFKPLFAALSPQDVNQLATEIIRTLQGEGGTVNSLLAHTASLTTTLAGRDKLIGSVIDNLNTVLETLDQRGARFSGLLKQLRRVISGLSADRKPIGQSLVGIGDLTDATSGLLKDARPPLKDDIAELTDLTGTLNKNENTVEGVLKRLPNKLGELTGTASYGSWFNFYLCDFDGRIVLPKTKQVLTPELHVARARCGA”, the protein production result is “failed”.

With “MHLFIEGEIEHLVFPGLKSYIVPVWDLRTYQIFDMALRVHKNIQQRDMVIGRNLGNWILRGLDRMKPSAQVLLPKNTEPSIDKAKRVLQSTRLKPHVNTQTPQNREVDRNLFMSLRNFRSKYPIASMMMIKPPRSTGTTTQYRPYSVGESSLIKPIYARGGFNSVIRKDILQWMVQKR”, the protein production result is given as “failed”.

Consider “MDHLKHLQQLQNIERIVLSGIVLANHKIEEVHSVLEPSDFYYPPNGLFFEIALKLHEEDCPIDENFIRQKMPKDKQIKEEDLVAIFAASPIDNIEAYVEEIKNASIKRKLFGLANTIREQALESAQKSSDILGAVEREVYALLNGSTIEGFRNIKEVLESAMDLITENQRKGSLEVTGIPTGFVQLDNYTSGFNKGSLVIIGARPSMGKTSLMMNMVLSALNDDRGVAVFSLEMSAEQLALRALSDLTSINMHDLESGRLDDDQWENLAKCFDHLSQKKLFFYDKSYVRIEQIRLQLRKLKSQHKELGIAFIDYLQLMSGSKATKERHEQIAEISRELKTLARELEIPIIALVQLNRSLENRDDKRPILSDIKDSGGIEQDADIVLFLYRGYIYQMRAEDNKIDKLKKEGKIEEAQELYLKVNEERRIHKQNGSIEEAEIIVAKNRNGATGTVYTRFNAPFTRYEDMPIDSHLEEGQETKVDYDIVTT”, for which the protein production entry is “not failed”.
